These results are taken from paper PMC12520543, “An Apple Susceptibility‐Related LRR Receptor‐Like Kinase MdRLKT21 Activates Plant Immunity by Hijacking a Trans‐Kingdom Fungal microRNA‐Like RNA” (Advanced Science, 2025).

A word on the Kd: it is a measure of binding affinity in units of concentration. High values mean weaker binding, low ones tighter binding.

This experiment concerns the target T1, GST-MdRFP1-His (apple (M. domestica), labeled with the Monolith NT Protein Labeling Kit RED).
T1 construct: MdRFP1, apple C3HC4-type RING finger protein 1, GenBank XP_017184215.2; Vector pGEX-6P-1; The results name GST-MdRFP1-His for the MST; the MST methods say only 'MdRFP1 was purified and labeled'; also called labeled MdRFP1; source: E. coli BL21 (DE3), purified (glutathione agarose and HisPur Ni-NTA resin are named for the set of recombinant proteins); not shown: GST, N-terminal, kept; His, …
Description: MST; labeled MdRFP1 (Monolith NT Protein Labeling Kit RED) incubated with a gradient dilution of MdRLKT21-KD for 30 min at RT; standard treated capillaries; Monolith NT.115. The conditions noted are these: both partners purified.

T1 sequence (main, as listed by the source): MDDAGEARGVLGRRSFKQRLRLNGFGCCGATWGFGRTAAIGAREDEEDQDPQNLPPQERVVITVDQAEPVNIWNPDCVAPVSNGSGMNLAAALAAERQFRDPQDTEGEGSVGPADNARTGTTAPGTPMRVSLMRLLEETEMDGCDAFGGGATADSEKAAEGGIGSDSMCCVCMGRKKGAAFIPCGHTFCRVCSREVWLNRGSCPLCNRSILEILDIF

B1: GST-MdRLKT21-KD (domain or fragment)
chain: RVRSRAKEGKTGKEKVVKEVAEVVVVEEGEGQNGKFVVLDEGFGLDLEDLLRASAYVVGKSRSGITYRVVAGSGGKGPGAAPSVVAVRRLSEGDATWRLKEFEAEVEAIGKVVHPNIVRLRAYYYASDEKLLVTDFIRNGSLYNALHGGPSNSLPPLPWTARLKIAQGTARGLMYIHEHSTRKYVHGNIKSTKILLNDDLQPYISGFGLARLMLGTSKFTTSASRRQNSNESIVASGLVVPTSSTIYLAPEARISRSKFTQKCDVYSFGIVLLEILTGRLPDEGLENGGKGLESLVRKTFRDERPLSEIIDPALLQEVYAKKQVVEAFHIALNCTELDPELRPRMKTVSESLDRLKLQC
Molecule B1 displayed a Kd of 14 ± 4.24 nM.
